Laboratory results reported in US20240317847A1 (Bayer, published 2024).

T1: murine IL-11 (mouse, UniProt P47873 22-199)
T1 construct: bought from Invigate; also called mIL-11; mIL11
T1 sequence: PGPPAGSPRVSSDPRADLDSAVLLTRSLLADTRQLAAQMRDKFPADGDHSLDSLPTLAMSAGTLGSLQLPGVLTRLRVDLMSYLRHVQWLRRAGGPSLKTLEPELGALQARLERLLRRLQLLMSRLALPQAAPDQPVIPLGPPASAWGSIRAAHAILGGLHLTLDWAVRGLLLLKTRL

T2: human IL-11 (human, UniProt P20809 22-199)
T2 construct: bought from Invigate; also called hIL-11; hIL11
T2 sequence: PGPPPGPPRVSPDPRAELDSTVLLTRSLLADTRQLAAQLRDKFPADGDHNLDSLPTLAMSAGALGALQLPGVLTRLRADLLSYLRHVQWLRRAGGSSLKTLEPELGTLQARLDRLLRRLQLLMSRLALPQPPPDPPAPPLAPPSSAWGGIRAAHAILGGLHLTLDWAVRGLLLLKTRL

T3: human IL2Ra (human, UniProt P01589 22-240, limits assumed)
T3 construct: bought protein, coated on the plate; also called hIL2RA; IL-2 receptor alpha
T3 sequence (looked up): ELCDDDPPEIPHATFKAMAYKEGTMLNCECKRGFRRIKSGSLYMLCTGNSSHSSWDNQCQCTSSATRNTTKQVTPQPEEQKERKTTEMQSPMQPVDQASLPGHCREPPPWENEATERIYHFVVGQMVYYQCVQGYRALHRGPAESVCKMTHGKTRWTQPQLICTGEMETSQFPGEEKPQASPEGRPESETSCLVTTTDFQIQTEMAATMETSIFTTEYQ

T4: human IL-11 (human, UniProt P20809 22-199)
T4 sequence: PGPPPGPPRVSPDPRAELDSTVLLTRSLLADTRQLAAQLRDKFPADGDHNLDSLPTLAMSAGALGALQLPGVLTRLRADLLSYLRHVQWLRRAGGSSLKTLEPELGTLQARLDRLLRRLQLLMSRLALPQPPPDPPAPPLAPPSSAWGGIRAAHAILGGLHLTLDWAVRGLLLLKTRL

T5: murine IL-11 (mouse, UniProt P47873 22-199)
T5 sequence: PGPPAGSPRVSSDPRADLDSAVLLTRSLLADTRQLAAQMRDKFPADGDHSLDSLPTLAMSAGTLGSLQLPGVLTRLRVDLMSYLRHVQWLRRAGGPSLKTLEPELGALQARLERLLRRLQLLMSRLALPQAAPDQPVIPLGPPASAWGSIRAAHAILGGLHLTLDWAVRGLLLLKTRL


Columns and labels:
[1] = target: T1, murine IL-11; assay: SPR, antibody captured, IL-11 as analyte
Experimental: (§1) Antibodies were captured via anti-mouse Fc IgGs (“Mouse antibody capture kit, Order No. BR100383, Cytiva) covalently amine coupled to a Series S CM5 sensor chip (Cytiva). The amine coupling was carried out according to the manufacturer's instructions using 1-ethyl-3-(3-dimethylaminopropyl) carbodiimide hydrochloride (EDC), N-hydroxysuccinimide (NHS) and ethanolamine HCl, pH 8.5 (“Amine Coupling Kit” BR-1000-50, Cytiva.). Human IL-11 (Invigate, e.g., lot #C121021-19), and murine IL-11 (Invigate, e.g., lot #C210819-09) were used as analytes. […] Based on that experiment an IL-11 concentration range was chosen to optimally determine kinetics and affinity of anti-IL-11 antibodies in multicycle kinetics mode. The sensor surface was regenerated with glycine pH 1.7 after each antigen injection. Obtained sensorgrams were double referenced (subtraction of reference flow cell signal and buffer injection) and were fitted to a 1:1 Langmuir binding model to derive kinetic data using the Biacore T200 Evaluation software or the Biacore Insight software.
(§2) 42 hits from the IL-11 and […] screening analysis were selected, expressed by transient transfection of mammalian cells and purified as described in Example 15. Antibodies were then tested for human IL-11 and murine IL-11 binding by SPR as described in Example 16.

[2] = target: T2, human IL-11; assay: SPR, antibody captured, IL-11 as analyte
Experimental: as §1, §2

[3] = target: T3, human IL2Ra; assay: IL2Ra direct binding ELISA, signal ratio to isotype control
Experimental: IL2RA (Peprotech, Germany, #200-02RC) was coated at 1 or 0 μg/ml (buffer only control) in 30 μl coating buffer (Candor, #113500) per well on a 384 well microtiter plate (Maxisorb, Nunc, #460518) over night at 4-8° C. After two washes with 50 μl/well washing buffer (PBS+0.05% Tween, pH 7.4), the plates were incubated for two hours at room temperature with 50 μl/well SmartBlock (Candor, #113500). After blocking, the plates were washed three times with washing buffer. Then, a dilution series of the respective antibody (1E-7 [M] down to 2E-13 [M]) in PBS+0.05% Tween, 10% SmartBlock were added in 30 μl to the microtiter plate and incubated for 90 min at room temperature. After three additional washes, 30 μl anti mouse IgG HRP-conjugated antibody (Biotechne, HAF007), diluted 1:1000 in PBS+0.05% Tween (pH 7.4), were added per well and incubated for one hour. After three additional washes, a mixture of Amplex red (Invitrogen, #12222, 10 mM stock solution in DMSO) 1:1000 diluted in PBS and H2O2 (30%, Merck, #107209)) diluted 1:10000 in PBS were added as substrate with 30 μl per well and incubated for 20 min in the dark. Relative fluorescence was measured with a microtiter plate reader at 535/590 nm.
Next, the 42 antibodies were subjected to an IL2Ra binding ELISA as described in Example 20.

[4] = target: T4, human IL-11; assay: cell-based or functional assay
[5] = target: T5, murine IL-11; assay: cell-based or functional assay

| Binder | Kd [1] | Kd [2] | further results |
| --- | --- | --- | --- |
| TPP-26290 (antibody, V domains shown, constant regions not restated) VH: EVQLLESGGGLVQPGGSLRLSCAASGFTFSSYGMHWVRQAPGKGLEWVSVISYDGSYKYYADSVKGRFTISRDNSKNTLYLQMNSLRAEDTAVYYCAAGVPDYWGQGTLVTVSS VL: QSVLTQPPSASGTPGQRVTISCTGSSSNIGAGMDVHWYQQLPGTAPKLLIYSNNERPSGVPDRFSGSKSGTSASLAISGLRSEDEADYYCAAWDDSLNGPVFGGGTKLTVL | 0.54 nM | 8.6 nM |  |
| TPP-26293 (antibody, V domains shown, constant regions not restated) VH: EVQLLESGGGLVQPGGSLRLSCAASGFTFSSYGMHWVRQAPGKGLEWVSVISYDGSYKYYADSVKGRFTISRDNSKNTLYLQMNSLRAEDTAVYYCAAGVPDYWGQGTLVTVSS VL: QSVLTQPPSASGTPGQRVTISCTGSSSNIGAWYDVHWYQQLPGTAPKLLIYSNNERPSGVPDRFSGSKSGTSASLAISGLRSEDEADYYCAAWDDSLNGPVFGGGTKLTVL | 0.26 nM | 11 nM |  |
| TPP-26298 (antibody, V domains shown, constant regions not restated) VH: EVQLLESGGGLVQPGGSLRLSCAASGFTFSSYGMHWVRQAPGKGLEWVSVISYDGSYKYYADSVKGRFTISRDNSKNTLYLQMNSLRAEDTAVYYCAAGVPDYWGQGTLVTVSS VL: QSVLTQPPSASGTPGQRVTISCLGSSSNIGAGYDVHWYQQLPGTAPKLLIYSNNERPSGVPDRFSGSKSGTSASLAISGLRSEDEADYYCAAWDDSLNGPVFGGGTKLTVL | 0.73 nM | 13 nM |  |
| TPP-26333 (antibody, V domains shown) VH: EVQLLESGGGLVQPGGSLRLSCAASGFTFSSYGFHWVRQAPGKGLEWVSVISYDGSYKYYADSVKGRFTISRDNSKNTLYLQMNSLRAEDTAVYYCAAGVPDYWGQGTLVTVSS VL: QSVLTQPPSASGTPGQRVTISCTGSSSNIGAGYDVHWYQQLPGTAPKLLIYSNNERPSGVPDRFSGSKSGTSASLAISGLRSEDEADYYCAAWDDSLNGPVFGGGTKLTVL |  |  | hIL2RA ELISA Binding: Ratio to Isotpye [3]: 436 ratio; RGA Efficacy (%) [4]: 64.7%; RGA IC50 [4]: 13 nM; RGA Efficacy (%) [5]: 94.1%; RGA IC50 [5]: 1.2 nM |
| TPP-26291 (antibody, V domains shown, constant regions not restated) VH: EVQLLESGGGLVQPGGSLRLSCAASGFTFSSYGMHWVRQAPGKGLEWVSVISYDGSYKYYADSVKGRFTISRDNSKNTLYLQMNSLRAEDTAVYYCAAGVPDYWGQGTLVTVSS VL: QSVLTQPPSASGTPGQRVTISCTGSSSNIGAGYDVHWYQQLPGTAPKLLIYSNNERPSGVPDRFSGSKSGTSASLAISGLRSEDEADYYCAAWDPSLNGPVFGGGTKLTVL | 0.94 nM | 9.7 nM |  |
| TPP-26297 (antibody, V domains shown, constant regions not restated) VH: EVQLLESGGGLVQPGGSLRLSCAASGFTFSSYGMHWVRQAPGKGLEWVSVISYDGSYKYYADSVKGRFTISRDNSKNTLYLQMNSLRAEDTAVYYCAAGVPDYWGQGTLVTVSS VL: QSVLTQPPSASGTPGQRVTISCTGSSSNIGAGYDVHWYQQLPGTAPKLLIYSNNERPSGVPDRFSGSKSGTSASLAISGLRSEDEADYYCAAWQDSLNGPVFGGGTKLTVL | 0.89 nM | 13 nM |  |
| TPP-26296 (antibody, V domains shown, constant regions not restated) VH: EVQLLESGGGLVQPGGSLRLSCAASGFTFSSYGMHWVRQAPGKGLEWVSVISYDGSYKYYADSVKGRFTISRDNSKNTLYLQMNSLRAEDTAVYYCAAGVPDYWGQGTLVTVSS VL: QSVLTQPPSASGTPGQRVTISCTGSSSNIGAGYDVHWYQQLPGTAPKLLIYSNNERPSGVPDRFSGSKSGTSASLAISGLRSEDEADYYCAAWDNSLNGPVFGGGTKLTVL | 0.71 nM | 14 nM |  |
| TPP-26295 (antibody, V domains shown, constant regions not restated) VH: EVQLLESGGGLVQPGGSLRLSCAASGFTFSSYGMHWVRQAPGKGLEWVSVISYDGSYKYYADSVKGRFTISRDNSKNTLYLQMNSLRAEDTAVYYCAAGVPDYWGQGTLVTVSS VL: QSVLTQPPSASGTPGQRVTISCTGSSSNIGAGYDVHWYQQLPGTAPKLLIYSNNERPSGVPDRFSGSKSGTSASLAISGLRSEDEADYYCAAWDHSLNGPVFGGGTKLTVL | 0.65 nM | 9.8 nM |  |
| TPP-26292 (antibody, V domains shown, constant regions not restated) VH: EVQLLESGGGLVQPGGSLRLSCAASGFTFSSYGMHWVRQAPGKGLEWVSVISYDGSYKYYADSVKGRFTISRDNSKNTLYLQMNSLRAEDTAVYYCAAGVPDYWGQGTLVTVSS VL: QSVLTQPPSASGTPGQRVTISCTGSSSNIGAGYDVHWYQQLPGTAPKLLIYSNNERPSGVPDRFSGSKSGTSASLAISGLRSEDEADYYCAAWDESLNGPVFGGGTKLTVL | 0.48 nM | 13 nM |  |
| TPP-26294 (antibody, V domains shown, constant regions not restated) VH: EVQLLESGGGLVQPGGSLRLSCAASGFTFSSYGMHWVRQAPGKGLEWVSVISYDGSYKYYADSVKGRFTISRDNSKNTLYLQMNSLRAEDTAVYYCAAGVPDYWGQGTLVTVSS VL: QSVLTQPPSASGTPGQRVTISCTGSSSNIGAAYDVHWYQQLPGTAPKLLIYSNNERPSGVPDRFSGSKSGTSASLAISGLRSEDEADYYCAAWDDSLNGPVFGGGTKLTVL | 0.82 nM | 11 nM |  |

More lines, main results first:

| Kd [1] | Kd [2] | Binder | further results |
| --- | --- | --- | --- |
| 0.7 nM | 13 nM | TPP-26302 (antibody, V domains shown, constant regions not restated) VH: EVQLLESGGGLVQPGGSLRLSCAASGFTFSSYGMHWVRQAPGKGLEWVSVISYDGSYKYYADSVKGRFTISRDNSKNTLYLQMNSLRAEDTAVYYCAAGVPDYWGQGTLVTVSS VL: QSVLTQPPSASGTPGQRVTISCTGSSSNIGAGYDVHWYQQLPGTAPKLLIYSNNERPSGVPDRFSGSKSGTSASLAISGLRSEDEADYYCSAWDDSLNGPVFGGGTKLTVL |  |
|  | 11 nM | TPP-26333 (antibody, V domains shown, constant regions not restated) VH: EVQLLESGGGLVQPGGSLRLSCAASGFTFSSYGFHWVRQAPGKGLEWVSVISYDGSYKYYADSVKGRFTISRDNSKNTLYLQMNSLRAEDTAVYYCAAGVPDYWGQGTLVTVSS VL: QSVLTQPPSASGTPGQRVTISCTGSSSNIGAGYDVHWYQQLPGTAPKLLIYSNNERPSGVPDRFSGSKSGTSASLAISGLRSEDEADYYCAAWDDSLNGPVFGGGTKLTVL |  |
| 0.63 nM | 11 nM | TPP-26299 (antibody, V domains shown, constant regions not restated) VH: EVQLLESGGGLVQPGGSLRLSCAASGFTFSSYGMHWVRQAPGKGLEWVSVISYDGSYKYYADSVKGRFTISRDNSKNTLYLQMNSLRAEDTAVYYCAAGVPDYWGQGTLVTVSS VL: QSVLTQPPSASGTPGQRVTISCTGSSSNIGAGYDVHWYQQLPGTAPKLLIYSNNERPSGVPDRFSGSKSGTSASLAISGLRSEDEADYYCAAWDDSLYGPVFGGGTKLTVL |  |
| 0.45 nM | 9.2 nM | TPP-26300 (antibody, V domains shown, constant regions not restated) VH: EVQLLESGGGLVQPGGSLRLSCAASGFTFSSYGMHWVRQAPGKGLEWVSVISYDGSYKYYADSVKGRFTISRDNSKNTLYLQMNSLRAEDTAVYYCAAGVPDYWGQGTLVTVSS VL: QSVLTQPPSASGTPGQRVTISCTGSSSNIGAGYDVHWYQQLPGTAPKLLIYSNNERPSGVPDRFSGSKSGTSASLAISGLRSEDEADYYCAAWDSSLNGPVFGGGTKLTVL |  |
